From PMC5460274, “Human dimethylarginine dimethylaminohydrolase 1 inhibition by proton pump inhibitors and the cardiovascular risk marker asymmetric dimethylarginine: in vitro and in vivo significance” (Scientific Reports, 2017)

Substrate: CN(C)C(=N)NCCC[C@H](N)C(=O)O
Test: cells, lysate or membranes

B1: dimethylarginine dimethylaminohydrolase 1 (DDAH1) (Homo sapiens) (protein)
chain: AGLGHPAAFGRATHAVVRALPESLGQHALRSAKGEEVDVARAERQHQLYVGVLGSKLGLQVVELPADESLPDCVFVEDVAVVCEETALITRPGAPSRRKEVDMMKEALEKLQLNIVEMKDENATLDGGDVLFTGREFFVGLSKRTNQRGAEILADTFKDYAVSTVPVADGLHLKSFCSMAGPNLIAIGSSESAQKALKIMQQMSDHRYDKLTVPDDIAANCIYLNIPNKGHVLLHRTPEEYPESAKVYEKLKDHMLIPVSMSELEKVDGLLTCCSVLINKKVDS
Km: 45 ± 2 µM
